From patent US12458703B2, “Responsive elastic polymers and methods of making and using same” (Purdue Research Foundation, priority 2016, dated 2025)

Test: Intravital fluorescence imaging of BSA-AF release in the knee joint after intra-articular injection
Format: in vivo
Settings: total radiant efficiency from knee joint, released from HA-g-PNIPAm hydrogels

Alexa Fluor 680 conjugated BSA: Alexa Fluor 680 conjugated BSA released from HA-g-PNIPAm hydrogels
time detected in the knee joints: more than 24 hours | time of maximum concentration post intra-articular injection (n=4): 6 to 12 h
